Reference: patent US20250154238A1, “METHODS AND COMPOSITIONS FOR TREATING AND PREVENTING FIBROSIS” (YALE UNIVERSITY, priority 2022, published 2025)
“Also recorded” adds a separate entry of the source.

How the values were obtained:
[1] = biological target: T1, recombinant human epiregulin (rhEreg) (Homo sapiens, UniProt O14944); assay: Inhibition of epiregulin-induced proliferation of human foreskin fibroblasts (CyQUANT); assay type: cell-based; conditions: rhEreg 100 ng/ml
T1 construct: recombinant human epiregulin containing the epidermal growth factor (EGF) domain; purchased R&D Biosciences 1195-EP
T1 sequence (O14944 63-108 limits assumed): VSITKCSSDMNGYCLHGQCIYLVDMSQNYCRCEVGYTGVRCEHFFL
Method: Human foreskin fibroblasts (HFFs) were incubated with recombinant human epiregulin (rhEreg) in Dulbecco's Modified Eagle Medium (DMEM) containing 1% fetal bovine serum (FBS), n=3 per rhEreg concentration (left panel). HFF were incubated in media containing rhEreg 100 ng/ml along with commercially available rat anti-human/mouse epiregulin antibody (middle panel) or hEreg NAb1 (right panel), n=4 (middle panel), n=6 (right panel) per antibody concentration. Data points show mean and standard error, which were fit by interpolating from a sigmoidal standard curve. Proliferation was measured by green fluorescence protein (GFP) fluorescence at day 3 using CyQUANT Direct Cell Proliferation Assay (Invitrogen) on Synergy HTX plate reader (Biotek).
To gauge their ability to inhibit epiregulin, whether the two unique antibodies produced by the hybridoma clones could inhibit recombinant epiregulin protein in vitro was tested. Characteristic of other EGFR ligands, recombinant human epiregulin (same as used for Alloy mouse immunization) induced proliferation of cultured human foreskin fibroblasts (HFF, ATCC #SCRC-1041) (FIG. 5, left panel). Maximal proliferation occurred at 100 ng/ml, so this concentration was used in subsequent inhibition experiments. […]

[2] = biological target: T2, full-length epiregulin protein (Homo sapiens, UniProt O14944); assay: HFF growth with increasing antibody in the absence of exogenous EGFR ligands; assay type: cell-based; conditions: increasing antibody concentrations, no exogenous EGFR ligands
T2 construct: Cultured HFF expressed endogenous full-length epiregulin; endogenous in cells; host or cells: human foreskin fibroblasts (HFF, ATCC #SCRC-1041)
T2 sequence (O14944 63-169): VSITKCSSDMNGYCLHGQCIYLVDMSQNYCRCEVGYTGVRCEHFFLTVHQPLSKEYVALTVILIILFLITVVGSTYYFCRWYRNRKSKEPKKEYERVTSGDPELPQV
Method: HFF were incubated with increasing concentrations of hEreg NAb1 in the absence of exogenous epidermal growth factor receptor (EGFR) ligands.
To gauge their ability to inhibit epiregulin, whether the two unique antibodies produced by the hybridoma clones could inhibit recombinant epiregulin protein in vitro was tested. Characteristic of other EGFR ligands, recombinant human epiregulin (same as used for Alloy mouse immunization) induced proliferation of cultured human foreskin fibroblasts (HFF, ATCC #SCRC-1041) (FIG. 5, left panel). Maximal proliferation occurred at 100 ng/ml, so this concentration was used in subsequent inhibition experiments. The ability of hEreg NAb1 and a commercially available rat anti-human/mouse neutralizing epiregulin antibody (R&D Systems MAB1068) to inhibit epiregulin-induced HFF proliferation was then compared. […] Cultured HFF expressed endogenous full-length epiregulin, but little to no other EGFR ligands. If HFF depend on the expression of epiregulin for growth and survival, inhibition of the endogenously produced protein should reduce their growth. […] Thus, hEreg NAb1 inhibits both the recombinant and full-length human epiregulin proteins.

[3] = biological target: T3, recombinant mouse epiregulin (rmEreg) (Mus musculus, UniProt Q61521); assay: Inhibition of HFF proliferation induced by mouse epiregulin; assay type: cell-based; conditions: rmEreg 100 ng/ml
T3 sequence (Q61521 56-101 limits assumed): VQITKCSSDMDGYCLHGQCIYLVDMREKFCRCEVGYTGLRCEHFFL
Method: HFF were incubated with recombinant mouse epiregulin (rmEreg) for 3 days (left panel). HFF were incubated in media containing rmEreg 100 ng/ml along with rat anti-human/mouse epiregulin antibody (middle panel) or hEreg NAb1 (right panel), n=4 (middle panel), n=6 (right panel) per antibody concentration. Data points show mean and standard error, which were fit by interpolating from a sigmoidal standard curve.
In order to validate the humanized antibody in mouse models of fibrosis, it was necessary to establish whether it cross-reacted with the mouse epiregulin homologue. To setup the assay, if recombinant mouse epiregulin could induce HFF proliferation was tested first, which it did similar to the human protein (FIG. 7, left panel). […] In contrast, hEreg NAb1 required >100-fold higher concentration to inhibit HFF proliferation by mouse epiregulin protein (FIG. 7, right panel). […] These findings are likely due to raising the humanized antibody in mice, which would negatively select out B cells that produce a self-reactive antibody.

[4] = tested on: skin biopsies from two patients with sGvHD; assay: Sclerotic GvHD patient skin explants, fibrosis protein markers in supernatant by ELISA; assay type: cell-based, human; conditions: 2.5 mg/ml, 10 days
Method: Paired skin biopsies from right arm and left abdomen of two patients with sGvHD were incubated with 2.5 mg/ml hEreg NAb1 or isotype control IgG1 antibody for 10 days. (FIG. 21A) Photos of patient fibrotic skin. (FIGS. 21B-21C) Media was changed every 48 hours and the level of fibrosis protein markers in the supernatant was quantified by ELISA (Abcam kits ab213831, ab210966, ab219046, ab187394, ab179886).
It was then investigated whether hEreg NAb1 could reduce fibrosis similar to the epiregulin neutralizing rat antibody. To investigate whether hEreg NAb1 reduces fibrosis protein markers, hEreg NAb1 was tested on skin biopsies from two patients with the fibrotic form of graft-vs-host disease (sGvHD). Patient I was a person 3 years post stem cell transplant from matched unrelated donor for treatment of myelodysplastic syndrome not on any immunosuppressive therapies. Patient 2 was a person 3 years post stem cell transplant from matched unrelated donor for treatment of acute myelogenous leukemia not on any immunosuppressive therapies. Paired 4 mm skin biopsies from the most affected skin of the right arm of patient 1 and left abdomen of patient 2 were obtained (FIG. 21A). Skin explants were incubated with 2.5 mg/ml hEreg NAb1 or isotype control IgG1 antibody for 10 days.

[5] = tested on: other EGFR ligands; assay: Rescue of HFF growth by other EGFR ligands in presence of hEreg NAb1; assay type: cell-based, human; conditions: 5 mg/ml hEreg NAb1; recombinant EGFR ligands 0.1, 1, 10 ng/ml; 3 days
Method: HFF were incubated with 5 mg/ml hEreg NAb1 alone and recombinant EGFR ligands at 0.1 ng/ml. 1 ng/ml, and 10 ng/ml for 3 days prior to quantification.
Next it was considered whether hEreg NAb1 could inhibit other EGFR ligands (commercially available from R&D Systems). HFF was incubated with 5 mg/ml of hEreg NAb1 alone, which as discussed above, inhibits epiregulin-driven growth of HFF. Whether addition of the other six EGFR ligands could rescue HFF growth through their activation of EGFR was tested. Compared to the hEreg NAb1 alone control, the lowest concentration tested of each EGFR ligand, 0.1 ng/ml, was sufficient to rescue HFF growth (FIG. 8).

[6] = skin explants from either patient

- IC50, inhibition of epiregulin-induced HFF proliferation ([1]; day 3): 0.1 to 0.3 µg/mL
- fold higher concentration required to inhibit HFF proliferation by mouse epiregulin protein ([3]; HFF): > 100 fold
B1: hEreg NAb1: humanized epiregulin neutralizing antibody from hybridoma wells M3-5; VH SEQ ID NO: 1, VL SEQ ID NO: 6 (antibody, V domains shown)
VH: HLQLQESGPGLVKSSETLSLTCSVSGGSISSSGYYWGWIRQPPGKGLEWIGSFYYSGNTYYNPSLKSRVTISADTSKSQYSLKLSSVTAADTAVYYCARHPFNWNDHYHYMDVWGNGTTVTVSS
VL: DIQMTQSPSSLSASVGDSVTITCRASQSISNYLNWYQKKPGKAPKVLIYAASSLQSGVPSRFSGSGSGTDFTLTISSLQPEDFATYYCQQSYITSITFGQGTRLEIK
- inhibition of human epiregulin-induced HFF proliferation ([1]; 3 days): inhibited HFF proliferation in a concentration-dependent manner; also recorded: inhibits
- HFF growth / inhibition of endogenous full-length epiregulin [2]: decreased growth was observed; also recorded: inhibits full-length epiregulin protein
- cross-reactivity for mouse epiregulin protein ([3]; HFF proliferation): little cross-reactivity; also recorded: low cross-reactivity
- fibrosis markers in sclerotic GvHD skin explants ([4]; vs isotype control IgG1): reduces fibrosis markers
- MCP-1 in supernatant vs IgG1 isotype control ([4]; patient 1, right arm): significantly reduced expression
- TIMP1 in supernatant vs IgG1 isotype control ([4]; patient 1, right arm): significantly reduced expression
- TNC in supernatant vs IgG1 isotype control ([4]; patient 1, right arm): significantly reduced expression
- TNC in supernatant vs IgG1 isotype control ([4]; patient 2, left abdomen): significant reduction
- fibronectin (FN) expression [4, 6]: did not reduce expression
- pro-collagen I alpha 1/pro-collagen I N-terminal propeptide (PINP) expression [4, 6]: did not reduce expression
- cross-reactivity with / neutralization of other EGFR ligands [5]: does not cross-react; also recorded: does not neutralize
